Reference: the supplement of paper PMC10065799, “High-throughput profiling of sequence recognition by tyrosine kinases and SH2 domains using bacterial peptide display” (eLife, 2023)

Assays:
Grb2 SH2 = Grb2 SH2 (UniProt P62993); assay: SH2 binding enrichment of the phosphorylated peptide, bacterial display (enrichment ratio); higher = better substrate or ligand; peptides without Tyr show the background
c-Src SH2 = assay: as above
SHP2-C SH2 = assay: as above
c-Src = assay: phosphorylation enrichment, bacterial display (enrichment ratio); higher = better substrate or ligand; peptides without Tyr show the background
FGFR1 = FGFR1 (UniProt P11362); assay: as above
Chain of FGFR1 (P11362 whole entry, looked up): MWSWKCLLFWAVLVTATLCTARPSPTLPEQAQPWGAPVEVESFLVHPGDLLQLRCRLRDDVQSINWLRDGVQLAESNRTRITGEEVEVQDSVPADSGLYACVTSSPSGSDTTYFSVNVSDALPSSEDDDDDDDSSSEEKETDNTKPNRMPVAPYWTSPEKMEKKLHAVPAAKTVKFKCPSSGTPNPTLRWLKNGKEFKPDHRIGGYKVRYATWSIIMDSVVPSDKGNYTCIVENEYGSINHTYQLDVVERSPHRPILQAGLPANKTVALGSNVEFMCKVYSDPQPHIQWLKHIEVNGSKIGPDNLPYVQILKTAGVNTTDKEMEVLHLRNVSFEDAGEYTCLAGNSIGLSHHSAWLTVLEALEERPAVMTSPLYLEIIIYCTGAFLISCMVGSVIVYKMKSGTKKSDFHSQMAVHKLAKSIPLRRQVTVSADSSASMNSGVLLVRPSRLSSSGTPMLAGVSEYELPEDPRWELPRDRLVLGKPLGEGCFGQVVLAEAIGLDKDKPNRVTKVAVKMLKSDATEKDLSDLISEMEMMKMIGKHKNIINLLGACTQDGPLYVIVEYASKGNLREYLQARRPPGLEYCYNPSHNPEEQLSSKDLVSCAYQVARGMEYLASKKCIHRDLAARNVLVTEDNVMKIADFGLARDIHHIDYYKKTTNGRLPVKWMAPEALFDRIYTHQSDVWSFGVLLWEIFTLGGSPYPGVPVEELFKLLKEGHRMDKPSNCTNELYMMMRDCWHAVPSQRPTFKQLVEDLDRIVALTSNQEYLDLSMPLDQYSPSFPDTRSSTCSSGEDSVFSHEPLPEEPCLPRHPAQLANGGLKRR

Fer (mouse) = assay: as above
MERTK = MERTK (UniProt Q12866); assay: as above
Fes = Fes (UniProt P07332); assay: as above
Chain of Fes (P07332 whole entry, looked up): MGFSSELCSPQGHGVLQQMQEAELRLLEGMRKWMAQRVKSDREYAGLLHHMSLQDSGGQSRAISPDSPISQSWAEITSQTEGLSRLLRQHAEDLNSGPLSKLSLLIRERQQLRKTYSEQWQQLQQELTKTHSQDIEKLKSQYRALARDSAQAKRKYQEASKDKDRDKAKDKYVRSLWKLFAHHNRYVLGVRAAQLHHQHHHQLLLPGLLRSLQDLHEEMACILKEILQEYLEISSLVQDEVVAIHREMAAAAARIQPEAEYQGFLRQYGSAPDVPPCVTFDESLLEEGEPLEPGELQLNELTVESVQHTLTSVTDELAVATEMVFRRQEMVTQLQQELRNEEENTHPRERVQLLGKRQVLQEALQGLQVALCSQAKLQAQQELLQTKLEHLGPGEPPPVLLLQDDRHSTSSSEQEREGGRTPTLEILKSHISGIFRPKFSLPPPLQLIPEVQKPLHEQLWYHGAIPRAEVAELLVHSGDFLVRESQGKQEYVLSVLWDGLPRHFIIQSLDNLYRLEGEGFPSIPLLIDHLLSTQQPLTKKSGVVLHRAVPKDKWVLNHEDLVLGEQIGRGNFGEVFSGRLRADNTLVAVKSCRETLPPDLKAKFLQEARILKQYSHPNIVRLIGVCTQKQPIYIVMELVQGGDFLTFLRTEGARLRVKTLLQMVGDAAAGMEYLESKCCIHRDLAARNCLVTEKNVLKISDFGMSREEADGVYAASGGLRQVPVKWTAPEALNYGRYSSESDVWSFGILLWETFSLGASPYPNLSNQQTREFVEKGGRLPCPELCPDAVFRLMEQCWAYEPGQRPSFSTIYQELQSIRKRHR

c-Abl (mouse) = assay: as above
Hck = Hck (UniProt P08631); assay: as above
AncSZ = assay: as above
FGFR3 = FGFR3 (UniProt P22607); assay: as above
Chain of FGFR3 (P22607 whole entry, looked up): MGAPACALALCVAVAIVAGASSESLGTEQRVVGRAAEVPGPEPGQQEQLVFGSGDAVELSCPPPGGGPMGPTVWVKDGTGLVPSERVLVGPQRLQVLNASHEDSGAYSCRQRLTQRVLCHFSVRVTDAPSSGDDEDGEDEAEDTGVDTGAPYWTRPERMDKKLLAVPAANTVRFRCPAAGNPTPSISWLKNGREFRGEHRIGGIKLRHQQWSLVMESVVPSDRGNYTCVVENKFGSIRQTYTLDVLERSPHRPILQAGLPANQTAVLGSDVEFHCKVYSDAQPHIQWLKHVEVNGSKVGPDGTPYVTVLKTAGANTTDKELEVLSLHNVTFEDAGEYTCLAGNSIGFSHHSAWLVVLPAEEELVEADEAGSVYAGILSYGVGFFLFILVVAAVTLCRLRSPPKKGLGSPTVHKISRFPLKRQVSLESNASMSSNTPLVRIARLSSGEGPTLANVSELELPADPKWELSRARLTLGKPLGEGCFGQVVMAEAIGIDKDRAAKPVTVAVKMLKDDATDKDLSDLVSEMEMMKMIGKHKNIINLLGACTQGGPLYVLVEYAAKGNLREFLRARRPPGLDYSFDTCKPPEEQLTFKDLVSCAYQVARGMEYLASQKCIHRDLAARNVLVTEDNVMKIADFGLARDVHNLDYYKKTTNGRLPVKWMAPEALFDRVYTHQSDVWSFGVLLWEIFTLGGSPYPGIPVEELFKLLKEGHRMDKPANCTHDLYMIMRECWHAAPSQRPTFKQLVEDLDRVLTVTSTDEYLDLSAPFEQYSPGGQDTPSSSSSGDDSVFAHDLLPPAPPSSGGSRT

Jak2 = Jak2 (UniProt O60674); assay: as above
Fyn = Fyn (UniProt P06241); assay: as above
Chain of Fyn (P06241 whole entry, looked up): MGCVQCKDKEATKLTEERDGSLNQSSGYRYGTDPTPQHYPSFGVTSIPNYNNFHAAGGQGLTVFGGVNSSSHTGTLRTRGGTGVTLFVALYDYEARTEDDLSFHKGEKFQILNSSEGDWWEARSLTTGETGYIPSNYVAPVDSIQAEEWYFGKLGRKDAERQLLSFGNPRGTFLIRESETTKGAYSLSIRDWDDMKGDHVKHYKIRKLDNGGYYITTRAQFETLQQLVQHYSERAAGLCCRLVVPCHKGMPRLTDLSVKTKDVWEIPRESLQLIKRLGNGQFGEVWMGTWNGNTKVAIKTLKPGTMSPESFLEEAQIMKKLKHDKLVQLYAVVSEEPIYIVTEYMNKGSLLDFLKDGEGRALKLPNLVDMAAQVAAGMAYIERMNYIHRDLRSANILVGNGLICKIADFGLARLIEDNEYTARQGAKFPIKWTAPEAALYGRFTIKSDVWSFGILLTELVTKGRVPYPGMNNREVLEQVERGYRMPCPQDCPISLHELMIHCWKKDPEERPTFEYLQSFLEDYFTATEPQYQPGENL

EPHB1 = EPHB1 (UniProt P54762); assay: as above
Chain of EPHB1 (P54762 whole entry, looked up): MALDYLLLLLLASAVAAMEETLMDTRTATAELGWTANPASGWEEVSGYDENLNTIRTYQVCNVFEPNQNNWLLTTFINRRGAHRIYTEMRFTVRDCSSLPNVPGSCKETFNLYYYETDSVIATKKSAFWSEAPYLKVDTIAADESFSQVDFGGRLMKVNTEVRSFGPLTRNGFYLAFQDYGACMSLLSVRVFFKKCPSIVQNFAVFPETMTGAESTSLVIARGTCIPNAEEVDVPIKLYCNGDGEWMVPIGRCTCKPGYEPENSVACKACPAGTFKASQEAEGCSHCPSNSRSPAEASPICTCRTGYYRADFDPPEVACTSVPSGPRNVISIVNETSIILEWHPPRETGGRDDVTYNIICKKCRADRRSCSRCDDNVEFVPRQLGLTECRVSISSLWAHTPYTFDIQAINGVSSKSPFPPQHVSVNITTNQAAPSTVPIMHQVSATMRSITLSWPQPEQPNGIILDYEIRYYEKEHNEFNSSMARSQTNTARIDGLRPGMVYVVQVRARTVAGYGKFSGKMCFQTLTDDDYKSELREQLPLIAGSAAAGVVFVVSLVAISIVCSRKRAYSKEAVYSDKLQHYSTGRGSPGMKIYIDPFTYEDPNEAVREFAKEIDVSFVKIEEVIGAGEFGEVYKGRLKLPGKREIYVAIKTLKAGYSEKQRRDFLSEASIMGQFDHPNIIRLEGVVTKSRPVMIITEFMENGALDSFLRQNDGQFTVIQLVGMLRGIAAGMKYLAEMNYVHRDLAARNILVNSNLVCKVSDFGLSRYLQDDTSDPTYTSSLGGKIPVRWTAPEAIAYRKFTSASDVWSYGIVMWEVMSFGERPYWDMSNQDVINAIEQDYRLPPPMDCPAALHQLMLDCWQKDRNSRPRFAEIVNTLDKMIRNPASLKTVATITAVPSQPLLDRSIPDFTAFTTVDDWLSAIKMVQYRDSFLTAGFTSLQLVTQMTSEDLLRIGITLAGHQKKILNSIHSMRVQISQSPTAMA

EPHB2 = EPHB2 (UniProt P29323); assay: as above
Chain of EPHB2 (P29323 whole entry, looked up, the tested form may be a part): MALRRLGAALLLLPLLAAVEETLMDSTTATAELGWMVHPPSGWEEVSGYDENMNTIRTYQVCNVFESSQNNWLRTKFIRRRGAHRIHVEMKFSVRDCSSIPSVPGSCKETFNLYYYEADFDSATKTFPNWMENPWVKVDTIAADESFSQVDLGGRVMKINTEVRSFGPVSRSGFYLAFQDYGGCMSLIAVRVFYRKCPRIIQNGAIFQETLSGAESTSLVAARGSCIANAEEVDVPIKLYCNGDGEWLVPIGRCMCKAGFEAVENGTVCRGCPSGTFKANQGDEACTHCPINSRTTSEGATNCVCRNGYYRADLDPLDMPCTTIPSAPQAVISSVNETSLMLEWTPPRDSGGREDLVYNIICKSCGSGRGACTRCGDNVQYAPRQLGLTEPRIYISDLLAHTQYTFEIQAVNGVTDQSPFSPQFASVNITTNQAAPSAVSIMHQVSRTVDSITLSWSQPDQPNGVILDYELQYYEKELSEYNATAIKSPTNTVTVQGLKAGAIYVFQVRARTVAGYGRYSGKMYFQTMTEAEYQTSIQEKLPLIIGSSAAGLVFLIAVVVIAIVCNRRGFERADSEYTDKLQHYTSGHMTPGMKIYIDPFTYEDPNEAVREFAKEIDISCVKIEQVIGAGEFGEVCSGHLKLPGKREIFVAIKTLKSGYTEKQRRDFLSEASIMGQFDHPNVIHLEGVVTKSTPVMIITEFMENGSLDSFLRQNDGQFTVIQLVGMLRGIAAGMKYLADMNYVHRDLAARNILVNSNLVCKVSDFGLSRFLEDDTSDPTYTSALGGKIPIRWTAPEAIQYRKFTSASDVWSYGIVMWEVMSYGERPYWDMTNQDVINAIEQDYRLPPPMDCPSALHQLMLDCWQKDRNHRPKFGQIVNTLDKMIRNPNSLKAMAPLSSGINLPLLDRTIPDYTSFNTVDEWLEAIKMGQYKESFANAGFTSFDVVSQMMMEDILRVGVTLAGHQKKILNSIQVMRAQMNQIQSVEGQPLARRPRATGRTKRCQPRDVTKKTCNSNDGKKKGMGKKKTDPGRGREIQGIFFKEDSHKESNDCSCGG
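Wherever SH2 binding enrichment of the phosphorylated peptide, bacterial display is given: peptide library displayed on the E. coli surface as eCPX fusions, selected cells deep-sequenced, score is each peptide's frequency after selection divided by its frequency in the input.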
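Wherever phosphorylation enrichment, bacterial display is given: 11-residue human phosphosite peptides and single-mutation variants displayed on the E. coli surface, counted by deep sequencing, each peptide's frequency after selection divided by its frequency in the unselected input library; frequency after pTyr selection over input frequency; kinase dosed for 20-30% of maximal phosphorylation in three min.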

SH2 binding enrichment (Grb2 SH2) | SH2 binding enrichment (c-Src SH2) | SH2 binding enrichment (SHP2-C SH2) | Sequence | phosphorylation enrichment (c-Src) | phosphorylation enrichment (FGFR1) | phosphorylation enrichment (Fer (mouse)) | phosphorylation enrichment (MERTK) | phosphorylation enrichment (Fes) | phosphorylation enrichment (c-Abl (mouse)) | phosphorylation enrichment (Hck) | phosphorylation enrichment (AncSZ) | phosphorylation enrichment (FGFR3) | phosphorylation enrichment (Jak2) | phosphorylation enrichment (Fyn) | phosphorylation enrichment (EPHB1) | phosphorylation enrichment (EPHB2)
0.971 | 0.761 | 0.981 | PTTKTYFPHFH [HBA1_Y43_D48H] | 0.655 | 0.602 | 0.496 | 0.605 | 1.14 | 0.676 | 0.688 | 0.721 | 0.559 | 0.951 | 0.598 | 0.457 | 0.399
0.964 | 0.457 | 1.08 | PTTKTYFRHFD [HBA1_Y43_P45R] | 0.545 | 0.65 | 0.312 | 0.466 | 0.998 | 0.667 | 0.539 | 0.556 | 0.66 | 0.959 | 0.393 | 0.546 | 0.409
0.901 | 0.483 | 0.756 | PTTKTYLPHFD [HBA1_Y43_F44L] | 0.458 | 0.508 | 0.386 | 0.494 | 0.77 | 0.307 | 0.389 | 0.839 | 0.58 | 0.456 | 0.622 | 0.362 | 0.489
0.838 | 0.527 | 0.673 | PVKDGYQMAQP [CSF1R_Y873_L868P] | 0.574 | 1.05 | 0.591 | 0.393 | 1.11 | 0.278 | 0.833 | 0.682 | 0.694 | 0.521 | 0.433 | 0.451 | 0.474
0.859 | 0.493 | 0.597 | PVQAAYRKVVA [HBB_Y131_Q132R] | 0.421 | 0.367 | 0.339 | 0.348 | 0.505 | 0.48 | 0.543 | 0.502 | 0.373 | 0.336 | 0.407 | 0.199 | 0.237
0.837 | 0.364 | 0.506 | PVRIAYGRPRG [SUGP2_Y985_D986G] | 0.816 | 0.449 | 0.61 | 0.606 | 0.523 | 0.5 | 1.25 | 1.01 | 0.64 | 1.18 | 0.639 | 0.643 | 0.493
1.13 | 2.66 | 0.591 | PYTDPYYDYEI [ZC3H18_Y371_A368T] | 6.46 | 18.9 | 4.55 | 3.26 | 1.97 | 1.59 | 2.43 | 3.74 | 14.7 | 1.88 | 4.83 | 2.99 | 3.3
1.23 | 1.08 | 1.17 | QAYSWYQHQRA [NDST1_Y714_R709Q] | 0.642 | 1.22 | 6.78 | 3.85 | 1.01 | 0.8 | 0.782 | 1.13 | 0.883 | 1.1 | 0.516 | 0.701 | 0.901
0.699 | 0.42 | 0.955 | QDIMAYRSREV [BCL6_Y157_G159S] | 0.513 | 0.285 | 0.196 | 0.398 | 0.746 | 0.745 | 0.314 | 0.569 | 0.664 | 0.759 | 0.323 | 0.456 | 0.343
0.957 | 0.476 | 0.662 | QEGPEYWDGET [HLA-A_Y83_Q86G] | 0.554 | 0.839 | 0.788 | 0.627 | 1.71 | 0.964 | 0.712 | 1.73 | 1.25 | 1.67 | 0.712 | 0.739 | 0.786
0.775 | 0.507 | 0.583 | QEGPEYWDLET [HLA-A_Y83_Q86L] | 0.998 | 3.97 | 0.748 | 0.742 | 2.29 | 1.56 | 0.978 | 2.76 | 3.3 | 2.02 | 0.846 | 1.59 | 1.18
0.729 | 0.397 | 0.596 | QELRRYLESGV [MICA_Y194_K196E] | 0.465 | 0.62 | 0.486 | 0.49 | 0.812 | 0.616 | 0.489 | 0.597 | 0.662 | 1.16 | 0.772 | 0.749 | 1.54
1.01 | 0.625 | 1.37 | QFQLKYSETPF [SIX6OS1_Y129_YF] | 0.812 | 0.982 | 0.789 | 1.24 | 1.84 | 1.39 | 0.855 | 1.7 | 1.11 | 2.17 | 0.811 | 0.957 | 1.12
1.03 | 0.753 | 1.38 | QGCGIYKDFFR [PLA2G2D_Y82_S80G_YF] | 6.23 | 0.7 | 0.76 | 0.534 | 1.49 | 1.26 | 3.89 | 1.08 | 0.885 | 1.17 | 5.88 | 0.548 | 0.852
0.905 | 1.21 | 0.829 | QGQHWYSSSDK [CASP10_Y9] | 0.552 | 0.665 | 0.579 | 0.573 | 1.17 | 0.697 | 0.754 | 0.826 | 0.6 | 0.645 | 0.671 | 0.766 | 0.596
0.827 | 1.53 | 0.83 | QGQHWYSSSDT [CASP10_Y9_K14T] | 0.982 | 0.657 | 0.755 | 0.811 | 1.39 | 1.06 | 0.573 | 1.09 | 0.901 | 1.99 | 0.672 | 0.859 | 0.929
0.941 | 0.477 | 0.654 | QKFMAYPSQGG [HLCS_Y236_L237P] | 0.779 | 0.512 | 0.654 | 0.613 | 0.886 | 1.12 | 0.537 | 0.625 | 0.484 | 1.2 | 0.388 | 0.388 | 0.525

SH2 binding enrichment (Grb2 SH2) | SH2 binding enrichment (c-Src SH2) | SH2 binding enrichment (SHP2-C SH2) | Sequence | phosphorylation enrichment (c-Src) | phosphorylation enrichment (FGFR1) | phosphorylation enrichment (Fer (mouse)) | phosphorylation enrichment (MERTK) | phosphorylation enrichment (Fes) | phosphorylation enrichment (c-Abl (mouse)) | phosphorylation enrichment (Hck) | phosphorylation enrichment (AncSZ) | phosphorylation enrichment (FGFR3) | phosphorylation enrichment (Jak2) | phosphorylation enrichment (Fyn) | phosphorylation enrichment (EPHB1) | phosphorylation enrichment (EPHB2)
0.815 | 0.604 | 0.436 | QLDQHYLLVPE [DDX49_Y223_R222H] | 0.654 | 1.6 | 0.643 | 0.825 | 1.1 | 0.642 | 0.893 | 1.16 | 2.09 | 1.14 | 0.955 | 1.21 | 1.09
0.834 | 0.486 | 0.558 | QMEKICTQQIQ [CCNB1IP1_Y125_Y125C] | 0.573 | 1 | 0.537 | 0.461 | 1.64 | 0.986 | 0.409 | 1.36 | 0.948 | 1.24 | 0.486 | 0.707 | 0.647
0.742 | 1.33 | 0.602 | QMVDMYASSYM [AVPR2_Y124_G122D] | 1.29 | 0.579 | 0.631 | 0.842 | 1.43 | 0.891 | 1.58 | 1.22 | 0.815 | 0.905 | 0.876 | 0.558 | 0.571
1.25 | 0.7 | 0.739 | QNTADYYDLYG [PTPN11_Y62_G60A] | 4.18 | 15.3 | 0.762 | 1.68 | 1.02 | 0.722 | 3.94 | 2.62 | 14.1 | 2.14 | 4.14 | 12.4 | 11.9
1.19 | 0.663 | 0.657 | QNTGFYFDLFG [PTPN11_Y62_D61Y_YF] | 0.681 | 3.04 | 1.12 | 2.75 | 2.16 | 1.36 | 0.742 | 1.89 | 2.42 | 2.66 | 0.668 | 1.6 | 1.25
1.12 | 0.628 | 1.02 | QNVADYMRYLM [RPL5_Y207] | 0.684 | 1.07 | 0.736 | 0.523 | 1.96 | 0.682 | 0.736 | 1.49 | 0.893 | 0.994 | 0.723 | 1.98 | 1.16
0.609 | 0.4 | 0.548 | QPGTDYKIFLF [FN1_Y1970_YF] | 0.674 | 1.17 | 0.899 | 0.673 | 2.44 | 1.4 | 0.924 | 2.09 | 1.21 | 1.72 | 0.591 | 1.05 | 0.848
1.01 | 0.808 | 1.08 | QQLVAYFSKHT [SRC_Y232_A237T_YF] | 0.513 | 0.562 | 0.595 | 0.382 | 1.09 | 0.646 | 0.699 | 0.898 | 0.942 | 1.75 | 0.629 | 0.676 | 0.724
0.762 | 10.6 | 0.797 | QRDSSYYWEIE [RAF1_Y340] | 1.95 | 3.91 | 0.536 | 3.5 | 1.09 | 0.744 | 0.981 | 1.3 | 3.03 | 1.13 | 2.12 | 2.77 | 1.14
1 | 0.724 | 0.881 | QRMGTYGVRAA [ICAM2_Y260] | 1.58 | 0.754 | 0.852 | 0.618 | 1.14 | 0.637 | 3.44 | 1.26 | 0.702 | 0.983 | 2.06 | 0.685 | 0.657
1.07 | 1 | 3.88 | QRRYVYYYSYL [PTEN_Y176] | 4.21 | 6.01 | 0.987 | 9.64 | 1.32 | 1.09 | 3.63 | 1.88 | 4.17 | 5.95 | 3.65 | 1.85 | 1.83
0.944 | 0.369 | 0.924 | QSAGQYSSQGL [TNNI3K_Y788] | 0.418 | 0.387 | 0.622 | 0.584 | 1.15 | 0.777 | 0.855 | 0.703 | 0.542 | 0.636 | 0.459 | 0.95 | 0.414
0.679 | 0.388 | 0.558 | QSLEPYTKQQL [STAT3_Y640_V637L] | 0.309 | 0.452 | 0.424 | 0.304 | 0.745 | 0.498 | 0.459 | 0.537 | 0.603 | 0.48 | 0.353 | 0.497 | 0.371
0.835 | 0.65 | 0.471 | QSSALYEDRFL [ASS1_Y83_YF] | 2.02 | 0.781 | 10.1 | 1.24 | 1.53 | 1.08 | 6.48 | 1.19 | 1.01 | 1.23 | 1.48 | 4.13 | 1.86
0.76 | 0.474 | 0.626 | QTLEAYIRCNK [SPAST_Y604_W607C] | 0.372 | 0.559 | 0.452 | 0.624 | 1.36 | 0.887 | 0.951 | 1.12 | 1.1 | 1.44 | 0.438 | 0.906 | 0.738
0.95 | 0.756 | 0.96 | QTWKTYVRQQQ [SFI1_Y164] | 0.37 | 0.411 | 0.446 | 0.456 | 1.02 | 0.673 | 0.402 | 0.914 | 0.738 | 0.766 | 0.526 | 0.524 | 0.685
